Assay results taken from patent US20240174744A1 (SCIRHOM, published 2024).
Residue numbers refer to the chain shown, from its start.

T1: hiR1-FL-WT-T7 (human iRhom1 full length wild type C-terminally tagged with 3 consecutive copies of the T7 … (human, UniProt Q96CC6 1-855))
T1 construct: also called human iRhom1 variant expressed by MEF-DKO-hiR1-FL-WT-T7 cells
T1 sequence: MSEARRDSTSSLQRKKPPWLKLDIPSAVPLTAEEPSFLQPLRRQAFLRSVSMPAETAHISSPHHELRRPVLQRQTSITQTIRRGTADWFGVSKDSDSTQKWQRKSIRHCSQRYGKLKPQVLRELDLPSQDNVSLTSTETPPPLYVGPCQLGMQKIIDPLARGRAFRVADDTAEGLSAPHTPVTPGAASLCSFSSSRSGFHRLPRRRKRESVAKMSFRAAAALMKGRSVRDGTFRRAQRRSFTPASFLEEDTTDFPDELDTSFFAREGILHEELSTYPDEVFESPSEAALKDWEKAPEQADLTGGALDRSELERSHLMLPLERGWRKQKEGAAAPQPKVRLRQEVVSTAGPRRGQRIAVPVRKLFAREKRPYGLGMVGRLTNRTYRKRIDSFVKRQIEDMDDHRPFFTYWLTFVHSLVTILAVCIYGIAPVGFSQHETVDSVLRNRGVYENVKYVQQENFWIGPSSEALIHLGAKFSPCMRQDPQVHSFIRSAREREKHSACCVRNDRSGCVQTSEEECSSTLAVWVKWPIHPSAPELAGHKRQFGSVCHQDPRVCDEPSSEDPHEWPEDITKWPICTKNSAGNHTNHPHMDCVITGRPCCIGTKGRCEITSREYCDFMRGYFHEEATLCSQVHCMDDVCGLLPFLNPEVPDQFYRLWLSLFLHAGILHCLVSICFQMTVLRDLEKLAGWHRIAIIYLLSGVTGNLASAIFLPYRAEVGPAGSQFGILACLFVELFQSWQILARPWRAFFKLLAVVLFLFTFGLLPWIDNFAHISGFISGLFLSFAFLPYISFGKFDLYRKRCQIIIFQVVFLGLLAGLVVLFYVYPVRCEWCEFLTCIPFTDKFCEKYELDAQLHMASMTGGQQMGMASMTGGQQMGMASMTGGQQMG

B1: antibody 43 (antibody, V domains shown)
VH: QVALKESGPGILQPSQTLSLTCSFSGFSLSTFGMGVGWIRQSSGKGLEWLANIWWDDDKYYNPALKSRLTISKDASKNQAFLKIANVDTADTATYYCARIGNYGSNYWYFDVWGTGTTVTVSS
VL: QIVLTQSPAIMSASPGERVTMTCSANSRISYMYWYQQKPGSSPRLLIYDTSNLASGVPVRFSGSGSGTSYSLTISRMEAEDAATYNCQQWSSYPLTFGAGTKLELK
notes: Mouse IgG, kappa light chain; also called clone #43
B2: antibody 44 (antibody, V domains shown)
VH: B1 VH with A3T, S42P, G44E, N52H, A75T, A80I, A85T, D91E, A98S
VL: QIVLTQSPAVMSASPGEKVTMTCTASSSVYYMYWYQQTPGSSPRLLIYDTSNLASGVPVRFSGSGSGTSYSLTISRMEAEDAATYYCQQWNTYPLTFGAGTKLELK
notes: Mouse IgG, kappa light chain; also called clone #44; m44
B3: antibody 16 (antibody, V domains shown)
VH: QVTLKESGPGILQPSQTLSLTCSFSGFSLSTFALGVGWIRQPSGRGLEWLAHIWWDDDKYYNPALKSRLTISKDTSKNHVFLKIANVDTADTATYYCARITTYYYGMDYWGQGTSVTVSS
VL: DIVLSQSPATLSVTPGDSVSLFCRASQSIGNHLHWYQQESHASPRLLIKYASQSISGIPSRFSGSGSGTDFTLSINSVETEDFGMYFCQQSYNWPLTFGAGTKLELK
notes: Mouse IgG, kappa light chain; also called clone #16; m16
B4: antibody 5 (antibody, V domains shown)
VH: B1 VH with A3T, S42P, N52H, D58E, P63S, D74A, A75T, G101S, D111N
VL: QVVLTQSPALMSASPGEKVTMTCSAGSSVSCMYWYQQKPGSSPRVLIYDTSNLASGVPARFTGSGSGTSYSLTISRMEAEDAASYYCQQWNSYPLTFGAGTKLELK
notes: Mouse IgG, kappa light chain; also called clone #5; purified antibody 5
B5: antibody 22 (antibody, V domains shown)
VH: B1 VH with A3T, S42P, N52H, D58E, P63S, D74A, A75T, A80V, G101S, D111N
VL: B4 VL with C31Y, S84T
notes: Mouse IgG, kappa light chain; also called clone #22; m22
B6: antibody 42 (antibody, V domains shown)
VH: B1 VH with A3T, F24L, M34R, S42P, N52H, D58E, A75T, A80V, K83R, G101Q
VL: B1 VL with Q1L, R18K, S24G, N26T, Y33F, L45V, M77V, A82V, N86Y, S91N
notes: Mouse IgG, kappa light chain; also called clone #42; m42
B7: antibody 34 (antibody, V domains shown)
VH: QVTLKESGPGILQPSQTLSLTCSFSGFSLSTFSLGVGWIRQSSGKGLEWLAHIWWDDEKYYNPALKSRLTISKDTSKNQVFLKIANVDAADTATYYCARAYYSKSYYALDYWGQGTSVTVSS
VL: DIQMTQSPSSLSASLGERVSLTCRASQEISGYLSWLQQKPDGTIKRLIYAASTLDSGVPKRFSGSRSGSDYSLAISSLESEDFADYYCLQYANFPFTFGSGTKLEIK
notes: Mouse IgG, kappa light chain; also called clone #34; m34
B8: antibody 50 (antibody, V domains shown)
VH: QVQLQQSGAELVRPGASVKVSCKASGYAFSNYLIEWVKQRPGQGLEWIGVINPGSGFTKYNEKFKGKATLTADKSSSTAYMQLSSLTSEDSAVYFCARGLYRAMDYWGQGTSVTVSS
VL: DIQMTQSPASQSASLGESVTITCLASQTIGTWLAWYQQKPGKSPQLLIYAAASLADGVPSRFSGGGSGTKFSFKISSLQAEDFVNYYCQQIYSTPYTFGGGTKLEIK
notes: Mouse IgG, kappa light chain; also called clone #50; purified antibody 50

Biological target: T1, hiR1-FL-WT-T7 (human iRhom1 full length …)
Assay: FACS on cells of the row human iR1 wild type

Binder	binding result
B1	no binding (tested: 3 µg/ml)
B2	no binding (tested: 3 µg/ml)
B3	no binding (tested: 3 µg/ml)
B4	no binding (tested: 3 µg/ml)
B5	no binding (tested: 3 µg/ml)
B6	no binding (tested: 3 µg/ml)
B7	no binding (tested: 3 µg/ml)
B8	no binding (tested: 3 µg/ml)
